Source: the supplement of paper PMC7125110
± gives the standard error. This sample holds only a part of the variants without activity.

B1: glmS ribozyme (parent)
chain: AUAAAAGCGCCAGAACUACAGAAAUGUAGUUGACGAGGAGGAGGUUUAUCGAAUUUUCGGCGGAUGCCUCCAAA

Legend:
Settings in all cases: with glucosamine-6-phosphate
[1] = variants of: B1; test: self-cleavage kobs at 40 uM GlcN6P; higher = faster cleavage; RNA array
Summary of the method: (§1)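 E. coli RNA polymerase transcribed barcoded ribozyme variants in situ on sequenced MiSeq chips, which were tracked via a hybridised Cy3 probe at 37 °C. Tiles were imaged over ~14 h after glucosamine-6-phosphate (40 μM to 10 mM) in HEPES/KCl/Mg(OAc)2 buffer was flowed in. Normalised per-tile medians were fit to one- or two-exponential decays for kobs, and kcat and KM came from weighted Michaelis–Menten fits.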

[2] = variants of: B1; test: self-cleavage kobs at 160 uM GlcN6P; higher = faster cleavage; RNA array
Summary of the method: as §1

[3] = variants of: B1; test: self-cleavage kobs at 640 uM GlcN6P; higher = faster cleavage; RNA array
Summary of the method: as §1

[4] = variants of: B1; test: self-cleavage kobs at 2500 uM GlcN6P; higher = faster cleavage; RNA array
Summary of the method: as §1

[5] = variants of: B1; test: self-cleavage kobs at 10000 uM GlcN6P; higher = faster cleavage; RNA array
Summary of the method: as §1

Variant	self-cleavage kobs at 40 uM GlcN6P [1] [s⁻¹]	self-cleavage kobs at 160 uM GlcN6P [2] [s⁻¹]	self-cleavage kobs at 640 uM GlcN6P [3] [s⁻¹]	self-cleavage kobs at 2500 uM GlcN6P [4] [s⁻¹]	self-cleavage kobs at 10000 uM GlcN6P [5] [s⁻¹]
A48C G60U	< 1e-05	< 1e-05	< 1e-05	< 1e-05	< 1e-05
U54G U65G C67G	3.01e-05 ± 1.5e-05	–	–	–	0.00213 ± 0.00029
A48G C50G C61G	0.000172 ± 6.6e-05	–	–	–	0.000127 ± 3.7e-05
U54G U56G G63A C67U	< 1e-05	–	–	–	< 1e-05
A48U C50A G66U	< 1e-05	–	–	–	–
C50U A52C	< 1e-05	< 1e-05	–	< 1e-05	< 1e-05
U56A U69C	0.000222 ± 5.9e-05	0.000288 ± 6e-05	0.000693 ± 0.00019	0.000572 ± 0.00015	0.00286 ± 0.00081
U56A C70U	0.000377 ± 3.2e-05	0.000852 ± 0.00013	0.002 ± 0.00026	0.0104 ± 0.0022	0.0156 ± 0.0024
G51C G59U	< 1e-05	< 1e-05	< 1e-05	–	–
U56G G63C	< 1e-05	< 1e-05	< 1e-05	–	< 1e-05
A48U G60A	< 1e-05	< 1e-05	< 1e-05	< 1e-05	< 1e-05
U49C G63A C67G	< 1e-05	–	–	–	< 1e-05
U54A U69C	0.000835 ± 0.00028	0.000323 ± 8.9e-05	0.000282 ± 6e-05	0.000214 ± 6.2e-05	0.000426 ± 0.00011
C50G C70A C71G	7.15e-05 ± 1.7e-05	–	–	–	6.95e-05 ± 1.6e-05
A48U G62U C68G	< 1e-05	–	–	–	–
A48C C67U C71A	< 1e-05	–	–	–	< 1e-05
U56A U65G	3.75e-05 ± 1.4e-05	–	0.000348 ± 0.00011	–	0.00196 ± 0.00027
G51C G60U	< 1e-05	< 1e-05	< 1e-05	–	< 1e-05
U49G U55G U65G	< 1e-05	–	–	–	6.42e-05 ± 1.5e-05
U49A A52G	< 1e-05	–	–	–	–
A48U A52G G63A	< 1e-05	–	–	–	< 1e-05
C50U C61G G63U	< 1e-05	–	–	–	–
A48U C50U	< 1e-05	< 1e-05	< 1e-05	< 1e-05	< 1e-05
U55C G63U	< 1e-05	–	–	–	–

Variant	self-cleavage kobs at 40 uM GlcN6P [1] [s⁻¹]	self-cleavage kobs at 160 uM GlcN6P [2] [s⁻¹]	self-cleavage kobs at 640 uM GlcN6P [3] [s⁻¹]	self-cleavage kobs at 2500 uM GlcN6P [4] [s⁻¹]	self-cleavage kobs at 10000 uM GlcN6P [5] [s⁻¹]
A52G C61G	< 1e-05	–	–	–	< 1e-05
A48G U69A	< 1e-05	–	–	–	–
A52U G63C A64U	< 1e-05	–	–	< 1e-05	–
A53G U65C	3.6e-05 ± 1.8e-05	–	0.000302 ± 7.9e-05	0.000224 ± 9.5e-05	0.000644 ± 0.00014
U56A C68U	0.000143 ± 2.2e-05	0.000404 ± 8.3e-05	0.000955 ± 0.00014	0.00101 ± 0.00018	0.00472 ± 0.00088
U54G C67U	0.000313 ± 5.9e-05	0.000612 ± 0.00014	0.00333 ± 0.00057	0.00208 ± 0.00059	–
U49C G59C	< 1e-05	–	–	< 1e-05	< 1e-05
U55C U56A	0.000256 ± 4.6e-05	–	–	0.0131 ± 0.0031	0.0148 ± 0.0032
A48C G51U C58G	< 1e-05	–	–	–	–
C58G C68G	3.25e-05 ± 1.1e-05	6.63e-05 ± 1.4e-05	9.11e-05 ± 1.1e-05	9.87e-05 ± 1.7e-05	1.82e-05 ± 7.1e-06
A48G C61U G66C C70U	< 1e-05	–	–	–	–
U47G A52U U69G	4.05e-05 ± 1.5e-05	–	–	–	3.79e-05 ± 1.3e-05
U57A G63U C70G	< 1e-05	–	–	–	–
A53U C71A	0.000169 ± 1.6e-05	0.000145 ± 3.8e-05	0.00145 ± 0.00029	–	0.00487 ± 0.00058
A53C C58A G60U	< 1e-05	–	–	–	–
C58A U65A C67G	< 1e-05	–	–	–	–
A53C G62A	< 1e-05	–	–	–	< 1e-05
G51U G62C	< 1e-05	–	< 1e-05	< 1e-05	< 1e-05
A48G G51U	< 1e-05	< 1e-05	–	–	–
U49C C58U	< 1e-05	< 1e-05	< 1e-05	< 1e-05	< 1e-05
U49C G66A	< 1e-05	–	–	–	< 1e-05
A53G C67A C70U	0.000161 ± 2.5e-05	–	–	–	0.00035 ± 9e-05
A48C A52U C70A	< 1e-05	–	–	–	–
G59C U65A	< 1e-05	< 1e-05	< 1e-05	–	< 1e-05
